The values that follow come from patent US20260193309A1 (BRIGHAM AND WOMEN S HOSPITAL, published 2026).

The labels stand for the following.
B1: human CEACAM1 IgV domain, wild type (tagless hCEACAM1 IgV domain) (receptor)
chain: QLTTESMPFNVAEGKEVLLLVHNLPQQLFGYSWYKGERVDGNRQIVGYAIGTQQATPGPANSGRETIYPNASLLIQNVTQNDTGFYTLQVIKSDLVNEEATGQFHVYP
notes: also called hCEACAM1 WT; WT

Series [1] deals with the molecule itself. The experiment in a line: PDB-PISA analysis of the dimer crystal structure.
Series [2] deals with the molecule itself. In words: DSF and SEC-MALS (FIGS. 14B and 14C).
Series [3] deals with B1. In words: PDB-PISA analysis of the dimer crystal structure.
Series [4] has as its target B1. The experiment in a line: ELISA binding assay, tagless hCEACAM1 IgV protein added to WT hCEACAM1; signal given as fold response relative to WT. A general note: In an ELISA, binding on a coated surface is turned into a signal by an enzyme label.
In series [5] the target is B1. In words: structure of the heterodimer (FIG. 10C).

Turning to B1, the “PDB dimer formation score (PDB-PISA)” value in series [1] was found to be 0.89.

B2: hCEACAM1 IgV domain variant D40R (receptor)
chain: QLTTESMPFNVAEGKEVLLLVHNLPQQLFGYSWYKGERVRGNRQIVGYAIGTQQATPGPANSGRETIYPNASLLIQNVTQNDTGFYTLQVIKSDLVNEEATGQFHVYP
notes: also called hCEACAM1 D40R
As to B2, the “PDB dimer formation score (PDB-PISA)” value in series [1] was 0.93.

B3: hCEACAM1 IgV domain mutant I91A (receptor)
chain: QLTTESMPFNVAEGKEVLLLVHNLPQQLFGYSWYKGERVDGNRQIVGYAIGTQQATPGPANSGRETIYPNASLLIQNVTQNDTGFYTLQVAKSDLVNEEATGQFHVYP
notes: also called hCEACAM1 I91A
As to B3, the binding result in series [2] is listed as “binds”.

B4: hCEACAM1 IgV domain mutant V39A (receptor)
chain: QLTTESMPFNVAEGKEVLLLVHNLPQQLFGYSWYKGERADGNRQIVGYAIGTQQATPGPANSGRETIYPNASLLIQNVTQNDTGFYTLQVIKSDLVNEEATGQFHVYP
notes: also called hCEACAM1 V39A
For B4, the binding result in series [2] is recorded as “binds”.

B5: hCEACAM1 IgV domain variant R38D (receptor)
chain: QLTTESMPFNVAEGKEVLLLVHNLPQQLFGYSWYKGEDVDGNRQIVGYAIGTQQATPGPANSGRETIYPNASLLIQNVTQNDTGFYTLQVIKSDLVNEEATGQFHVYP
notes: also called tagless R38D; hCEACAM1 R38D
B5: in series [3], the “PDB dimer formation score (PDB-PISA)” value is 0.91.

B6: hCEACAM1 IgV domain variant Q89H (receptor)
chain: QLTTESMPFNVAEGKEVLLLVHNLPQQLFGYSWYKGERVDGNRQIVGYAIGTQQATPGPANSGRETIYPNASLLIQNVTQNDTGFYTLHVIKSDLVNEEATGQFHVYP
notes: also called tagless Q89H; hCEACAM1 Q89H
Take B6: in series [1], the “PDB dimer formation score (PDB-PISA)” value is 0.96. Besides, the binding result in series [4] is recorded as “binds”.

B7: hCEACAM1 IgV domain variant R38D/G41S (receptor)
chain: QLTTESMPFNVAEGKEVLLLVHNLPQQLFGYSWYKGEDVDSNRQIVGYAIGTQQATPGPANSGRETIYPNASLLIQNVTQNDTGFYTLQVIKSDLVNEEATGQFHVYP
notes: also called R38D G41S monomer
For B7, the binding result in series [5] is “binds”.
